# According to the PETadex activity labels (doi:10.1021/bi00096a018):
# Substrate: Acetylcholine
# Settings: pH 7; 22 °C
Protein,Km [µM],kcat [s⁻¹]
unnamed (protein) MRPPWYPLHTPSLAFPLLFLLLSLLGGGARAEGREDPQLLVRVRGGQLRGIRLKAPGGPVSAFLGIPFAEPPVGSRRFMPPEPKRPWSGVLDATTFQNVCYQNVDTLYPGFEGTEMWNPNRELSEDCLYLNVWTPYPRPASPTPVLIWIYGGGFQSGAASLDVYDGRFLAQVEGAVLVSMNYRVGTFGFLALPGSREAPGNVGLLDQRLALQWVQENIAAFGGDPMSVTLFGESAGAASVGMHILSLPSRSLFHRAVLQSGTPNGPWATVSAGEARRRATLLARLVGCPPGGAGGNDTELIACLRTRPAQDLVDHERHVLPQESIFRFSFVPVVDGDFLSDTPEALINTGDFQDLQVLVGVVKDEGSYFLVYGVPGFSKDNESLISRAQFLAGVRIGVPQASDLAAEAVVLHYTDWLHPEDPTHLRDAMSAVVGDHNVVCPVAQLAGRLAAQGARVYAYIFEHRASTLTWPLWMGVPHGYEIEFIFGLPLDPSLNYTTEERIFAQRLMKYWTNFARTGDPNDPRDSKSPQWPPYTTAAQQYVSLNLKPLEVRRGLRAQTCAFWNRFLPKLLSATDTLDEAERQWKAEFHRWSSYMVHWKNQFDHYSKQERCSDL,850,3500
unnamed (protein) MRPPWYPLHTPSLAFPLLFLLLSLLGGGARAEGREDPQLLVRVRGGQLRGIRLKAPGGPVSAFLGIPFAEPPVGSRRFMPPEPKRPWSGVLDATTFQNVCYQYVDTLYPGFEGTEMWNPNRELSEDCLYLNVWTPYPRPASPTPVLIWIYGGGFYSGAASLDVYDGRFLAQVEGAVLVSMNYRVGTFGFLALPGSREAPGNVGLLDQRLALQWVQENIAAFGGDPMSVTLFGESAGAASVGMHILSLPSRSLFHRAVLQSGTPNGPWATVSAGEARRRATLLARLVGCPPGGAGGNDTELIACLRTRPAQDLVDHERHVLPQESIFRFSFVPVVDGDFLSDTPEALINTGDFQDLQVLVGVVKDEGSYFLVYGVPGFSKDNESLISRAQFLAGVRIGVPQASDLAAEAVVLHYTDWLHPEDPTHLRDAMSAVVGDHNVVCPVAQLAGRLAAQGARVYAYIFEHRASTLTWPLWMGVPHGYEIEFIFGLPLDPSLNYTTEERIFAQRLMKYWTNFARTGDPNDPRDSKSPQWPPYTTAAQQYVSLNLKPLEVRRGLRAQTCAFWNRFLPKLLSATDTLDEAERQWKAEFHRWSSYMVHWKNQFDHYSKQERCSDL,420,2670
unnamed (protein) MRPPWYPLHTPSLAFPLLFLLLSLLGGGARAEGREDPQLLVRVRGGQLRGIRLKAPGGPVSAFLGIPFAEPPVGSRRFMPPEPKRPWSGVLDATTFQNVCYQYVDTLYPGFEGTEMWNPNRELSEDCLYLNVWTPYPRPASPTPVLIWIYGGGFYSGAASLDVYDGRFLAQVEGAVLVSMNYRVGTFGFLALPGSREAPGNVGLLDQRLALQWVQENIAAFGGDPMSVTLFGESAGAASVGMHILSLPSRSLFHRAVLQSGTPNGPWATVSAGEARRRATLLARLVGCPPGGAGGNDTELIACLRTRPAQDLVDHEWHVLPQESIFRFSFGPVVDGDFLSDTPEALINTGDFQDLQVLVGVVKDEGSYFLVYGVPGFSKDNESLISRAQFLAGVRIGVPQASDLAAEAVVLHYTDWLHPEDPTHLRDAMSAVVGDHNVVCPVAQLAGRLAAQGARVYAYIFEHRASTLTWPLWMGVPHGYEIEFIFGLPLDPSLNYTTEERIFAQRLMKYWTNFARTGDPNDPRDSKSPQWPPYTTAAQQYVSLNLKPLEVRRGLRAQTCAFWNRFLPKLLSATDTLDEAERQWKAEFHRWSSYMVHWKNQFDHYSKQERCSDL,50,2670
unnamed (protein) MRPPWYPLHTPSLAFPLLFLLLSLLGGGARAEGREDPQLLVRVRGGQLRGIRLKAPGGPVSAFLGIPFAEPPVGSRRFMPPEPKRPWSGVLDATTFQNVCYQYVDTLYPGFEGTEMWNPNRELSEDCLYLNVWTPYPRPASPTPVLIWIYGGGFYSGAASLDVYDGRFLAQVEGAVLVSMNYRVGTFGFLALPGSREAPGNVGLLDQRLALQWVQENIAAFGGDPMSVTLFGESAGAASVGMHILSLPSRSLFHRAVLQSGTPNGPWATVSAGEARRRATLLARLVGCPPGGAGGNDTELIACLRTRPAQDLVDHEWHVLPQESIFRFSFVPVVDGDFLSDTPEALINTGDFQDLQVLVGVVKDEGSFFLVYGVPGFSKDNESLISRAQFLAGVRIGVPQASDLAAEAVVLHYTDWLHPEDPTHLRDAMSAVVGDHNVVCPVAQLAGRLAAQGARVYAYIFEHRASTLTWPLWMGVPHGYEIEFIFGLPLDPSLNYTTEERIFAQRLMKYWTNFARTGDPNDPRDSKSPQWPPYTTAAQQYVSLNLKPLEVRRGLRAQTCAFWNRFLPKLLSATDTLDEAERQWKAEFHRWSSYMVHWKNQFDHYSKQERCSDL,53,1130
unnamed (protein) MRPPWYPLHTPSLAFPLLFLLLSLLGGGARAEGREDPQLLVRVRGGQLRGIRLKAPGGPVSAFLGIPFAEPPVGSRRFMPPEPKRPWSGVLDATTFQNVCYQNVNTLYPGFEGTEMWNPNRELSEDCLYLNVWTPYPRPASPTPVLIWIYGGGFQSGAASLDVYDGRFLAQVEGAVLVSMNYRVGTFGFLALPGSREAPGNVGLLDQRLALQWVQENIAAFGGDPMSVTLFGESAGAASVGMHILSLPSRSLFHRAVLQSGTPNGPWATVSAGEARRRATLLARLVGCPPGGAGGNDTELIACLRTRPAQDLVDHERHVLPQESIFRFSFVPVVDGDFLSDTPEALINTGDFQDLQVLVGVVKDEGSYFLVYGVPGFSKDNESLISRAQFLAGVRIGVPQASDLAAEAVVLHYTDWLHPEDPTHLRDAMSAVVGDHNVVCPVAQLAGRLAAQGARVYAYIFEHRASTLTWPLWMGVPHGYEIEFIFGLPLDPSLNYTTEERIFAQRLMKYWTNFARTGDPNDPRDSKSPQWPPYTTAAQQYVSLNLKPLEVRRGLRAQTCAFWNRFLPKLLSATDTLDEAERQWKAEFHRWSSYMVHWKNQFDHYSKQERCSDL,6100,2330
unnamed (protein) MRPPWYPLHTPSLAFPLLFLLLSLLGGGARAEGREDPQLLVRVRGGQLRGIRLKAPGGPVSAFLGIPFAEPPVGSRRFMPPEPKRPWSGVLDATTFQNVCYQYVDTLYPGFEGTEMWNPNRELSEDCLYLNVWTPYPRPASPTPVLIWIYGGGFYSGAASLDVYDGRFLAQVEGAVLVSMNYRVGTFGFLALPGSREAPGNVGLLDQRLALQWVQENIAAFGGDPMSVTLFGESAGAASVGMHILSLPSRSLFHRAVLQSGTPNGPWATVSAGEARRRATLLARLVGCPPGGAGGNDTELIACLRTRPAQDLVDHEWHVLPQESIFRFSFVPVVDGDFLSDTPEALINTGDFQDLQVLVGVVKDEGSYGLVYGVPGFSKDNESLISRAQFLAGVRIGVPQASDLAAEAVVLHYTDWLHPEDPTHLRDAMSAVVGDHNVVCPVAQLAGRLAAQGARVYAYIFEHRASTLTWPLWMGVPHGYEIEFIFGLPLDPSLNYTTEERIFAQRLMKYWTNFARTGDPNDPRDSKSPQWPPYTTAAQQYVSLNLKPLEVRRGLRAQTCAFWNRFLPKLLSATDTLDEAERQWKAEFHRWSSYMVHWKNQFDHYSKQERCSDL,75,383
unnamed (protein) MRPPWYPLHTPSLAFPLLFLLLSLLGGGARAEGREDPQLLVRVRGGQLRGIRLKAPGGPVSAFLGIPFAEPPVGSRRFMPPEPKRPWSGVLDATTFQNVCYQYVDTLYPGFEGTEMWNPNRELSEDCLYLNVWTPYPRPASPTPVLIWIYGGGFYSGAASLDVYDGRFLAQVEGAVLVSMNYRVGTFGFLALPGSREAPGNVGLLDQRLALQWVQENIAAFGGDPMSVTLFGESAGAASVGMHILSLPSRSLFHRAVLQSGTPNGPWATVSAGEARRRATLLARLVGCPPGGAGGNDTELIACLRTRPAQDLVDHEWHVLPQESIFRYSFVPVVDGDFLSDTPEALINTGDFQDLQVLVGVVKDEGSYFLVYGVPGFSKDNESLISRAQFLAGVRIGVPQASDLAAEAVVLHYTDWLHPEDPTHLRDAMSAVVGDHNVVCPVAQLAGRLAAQGARVYAYIFEHRASTLTWPLWMGVPHGYEIEFIFGLPLDPSLNYTTEERIFAQRLMKYWTNFARTGDPNDPRDSKSPQWPPYTTAAQQYVSLNLKPLEVRRGLRAQTCAFWNRFLPKLLSATDTLDEAERQWKAEFHRWSSYMVHWKNQFDHYSKQERCSDL,58,650
unnamed (protein) MRPPWYPLHTPSLAFPLLFLLLSLLGGGARAEGREDPQLLVRVRGGQLRGIRLKAPGGPVSAFLGIPFAEPPVGSRRFMPPEPKRPWSGVLDATTFQNVCYQYVDTLYPGFEGTEMWNPNRELSEDCLYLNVWTPYPRPASPTPVLIWIYGGGFYSGAASLDVYDGRFLAQVEGAVLVSMNYRVGTFGFLALPGSREAPGNVGLLDQRLALQWVQENIAAFGGDPMSVTLFGESAGAASVGMHILSLPSRSLFHRAVLQSGTPNGPWATVSAGEARRRATLLARLVGCPPGGAGGNDTELIACLRTRPAQDLVDHEWHVLPQESILRFSFVPVVDGDFLSDTPEALINTGDFQDLQVLVGVVKDEGSYFLVYGVPGFSKDNESLISRAQFLAGVRIGVPQASDLAAEAVVLHYTDWLHPEDPTHLRDAMSAVVGDHNVVCPVAQLAGRLAAQGARVYAYIFEHRASTLTWPLWMGVPHGYEIEFIFGLPLDPSLNYTTEERIFAQRLMKYWTNFARTGDPNDPRDSKSPQWPPYTTAAQQYVSLNLKPLEVRRGLRAQTCAFWNRFLPKLLSATDTLDEAERQWKAEFHRWSSYMVHWKNQFDHYSKQERCSDL,49,733
unnamed (protein) MRPPWYPLHTPSLAFPLLFLLLSLLGGGARAEGREDPQLLVRVRGGQLRGIRLKAPGGPVSAFLGIPFAEPPVGSRRFMPPEPKRPWSGVLDATTFQNVCYQQVDTLYPGFEGTEMWNPNRELSEDCLYLNVWTPYPRPASPTPVLIWIYGGGFYSGAASLDVYDGRFLAQVEGAVLVSMNYRVGTFGFLALPGSREAPGNVGLLDQRLALQWVQENIAAFGGDPMSVTLFGESAGAASVGMHILSLPSRSLFHRAVLQSGTPNGPWATVSAGEARRRATLLARLVGCPPGGAGGNDTELIACLRTRPAQDLVDHERHVLPQESIFRFSFVPVVDGDFLSDTPEALINTGDFQDLQVLVGVVKDEGSYFLVYGVPGFSKDNESLISRAQFLAGVRIGVPQASDLAAEAVVLHYTDWLHPEDPTHLRDAMSAVVGDHNVVCPVAQLAGRLAAQGARVYAYIFEHRASTLTWPLWMGVPHGYEIEFIFGLPLDPSLNYTTEERIFAQRLMKYWTNFARTGDPNDPRDSKSPQWPPYTTAAQQYVSLNLKPLEVRRGLRAQTCAFWNRFLPKLLSATDTLDEAERQWKAEFHRWSSYMVHWKNQFDHYSKQERCSDL,700,2670
